This is an account of results in article PMC11254524 (Cell Insight, 2024).

This assay addresses GST-tagged AKT1 (UniProt P31749 1-480). Nature of the assay: pull-down.

Sequence of GST-tagged AKT1 (P31749 whole entry): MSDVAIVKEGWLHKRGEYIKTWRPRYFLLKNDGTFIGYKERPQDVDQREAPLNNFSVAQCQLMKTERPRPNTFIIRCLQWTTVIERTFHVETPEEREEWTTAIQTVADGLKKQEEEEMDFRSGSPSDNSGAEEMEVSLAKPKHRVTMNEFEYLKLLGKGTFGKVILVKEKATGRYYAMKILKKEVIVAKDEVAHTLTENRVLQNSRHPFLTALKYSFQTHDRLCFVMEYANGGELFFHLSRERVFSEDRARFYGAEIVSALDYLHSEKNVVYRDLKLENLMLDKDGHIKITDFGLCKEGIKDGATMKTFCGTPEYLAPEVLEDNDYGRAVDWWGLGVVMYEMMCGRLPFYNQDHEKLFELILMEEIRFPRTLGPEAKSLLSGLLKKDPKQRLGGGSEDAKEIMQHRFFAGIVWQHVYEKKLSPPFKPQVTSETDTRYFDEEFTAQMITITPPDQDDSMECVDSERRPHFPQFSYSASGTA

B1: His-tagged SFN (natural protein, UniProt P31947 1-248, looked up)
chain: MERASLIQKAKLAEQAERYEDMAAFMKGAVEKGEELSCEERNLLSVAYKNVVGGQRAAWRVLSSIEQKSNEEGSEEKGPEVREYREKVETELQGVCDTVLGLLDSHLIKEAGDAESRVFYLKMKGDYYRYLAEVATGDDKKRIIDSARSAYQEAMDISKKEMPPTNPIRLGLALNFSVFHYEIANSPEEAISLAKTTFDEAMADLHTLSEDSYKDSTLIMQLLRDNLTLWTADNAGEEGGEAPQEPQS
With B1, the binding result is listed as “binds”.
